Consider eight sequences from the Immune Epitope Database (IEDB).

The term Kd denotes the free concentration of one partner at which half of the binding sites on the other are occupied at equilibrium, for simple one-to-one binding. Lower therefore signals higher affinity. The term IC50 denotes the concentration that inhibits the measured activity by half. High values mean weaker potency, low ones greater potency.

The target in experiment [1] is HLA-A*01:01. Kind of experiment: IEDB peptide-MHC binding, purified MHC/competitive/fluorescence; filed as Kd, often an IC50 or EC50 that approximates it; ≥ and ≤ were set here for values at or beyond the usual limits of such assays.
The target of experiment [2] is HLA-A*29:02. Described as above. The note with it: source organism: Streptococcus pneumoniae D39.
Another experiment concerns the target HLA-A*02:03. Kind of experiment: IEDB peptide-MHC binding, purified MHC/direct/fluorescence; filed as Kd, often an IC50 or EC50 that approximates it; ≥ and ≤ were set here for values at or beyond the usual limits of such assays.
The next experiment has as its target HLA-A*02:11. Described as above.
The target of the next experiment is HLA-A*02:12. The experiment is described as above.
Another experiment addresses HLA-A*02:16. The description is as above.
The target in the next experiment is HLA-A*02:19. The experiment is described as above.
Experiment [3] concerns the target HLA-A*03:01. The experiment is described as above.
A further experiment has as its target HLA-A*24:03. The experiment is described as above.
Experiment [4] addresses HLA-A*29:02. The description is as above.
Experiment [5] has as its target HLA-A*26:01. Kind of experiment: IEDB peptide-MHC binding, purified MHC/competitive/fluorescence; filed as Kd, often an IC50 or EC50 that approximates it; ≥ and ≤ were set here for values at or beyond the usual limits of such assays.
Experiment [6] concerns the target HLA-A*69:01. Described as above.
The target in experiment [7] is HLA-B*15:01. Described as above.
The target in a further experiment is HLA-B*15:17. The experiment is described as above.
For a further experiment, the target named is HLA-B*27:03. The experiment is described as above.
The target of experiment [8] is HLA-B*46:01. The description is as above.
The target in another experiment is HLA-B*51:01. The experiment is described as above.
Experiment [9] concerns the target HLA-B*57:01. The description is as above.
In experiment [10] the target is HLA-A*03:01. The experiment in a line: IEDB peptide-MHC binding, purified MHC/competitive/fluorescence; ≥ and ≤ were set here for values at or beyond the usual limits of such assays. The settings on record: source organism: Mus musculus.
The target of experiment [11] is HLA-A*01:01. The experiment in a line: IEDB peptide-MHC binding, purified MHC/direct/fluorescence; filed as Kd, often an IC50 or EC50 that approximates it; ≥ and ≤ were set here for values at or beyond the usual limits of such assays.
A further experiment concerns the target HLA-A*31:01. Described as above.
For experiment [12], the target named is HLA-A*69:01. The description is as above.
A further experiment has as its target HLA-B*07:02. The description is as above.
The next experiment concerns the target HLA-B*27:05. Described as above.
For experiment [13], the target named is HLA-B*39:01. The description is as above.
The target of a further experiment is HLA-B*44:02. The experiment is described as above.
Experiment [14] has as its target HLA-B*46:01. The experiment is described as above.
Experiment [15] deals with HLA-B*57:01. The experiment is described as above.
The target in another experiment is HLA-B*58:01. The description is as above.
The target of another experiment is HLA-A*11:01. The experiment is described as above.
Experiment [16] has as its target HLA-B*15:01. The experiment is described as above.
Another experiment addresses HLA-B*40:01. Described as above.
In experiment [17] the target is HLA-A*02:01. The description is as above. The settings on record: source organism: Yersinia pestis.
Experiment [18] deals with HLA-A*26:01. Described as above. The settings on record: source organism: Yersinia pestis Nepal516.
Another experiment deals with HLA-B*08:01. Described as above. The note with it: source organism: Yersinia pestis.
A further experiment has as its target HLA-A*68:02. The description is as above. The note with it: source organism: Orthohantavirus sangassouense.
Experiment [19] concerns the target HLA-A*02:01. The experiment in a line: IEDB peptide-MHC binding, purified MHC/competitive/fluorescence; filed as Kd, often an IC50 or EC50 that approximates it; ≥ and ≤ were set here for values at or beyond the usual limits of such assays. The note with it: source organism: Kurkino virus.
In the next experiment the target is HLA-B*18:01. Described as above. The note with it: source organism: Kurkino virus.
The target of experiment [20] is HLA-B*39:01. The description is as above. The note with it: source organism: Kurkino virus.
The mark [21] stands for this setting: source organism: Orthohantavirus andesense.
[22] abbreviates: source organism: Mycobacterium tuberculosis variant bovis.
[23] abbreviates: source organism: Mycobacterium tuberculosis.
Setting [24] is: source organism: Yersinia pestis Nepal516.
[25] abbreviates: source organism: Yersinia pestis.
Setting [26] is: source organism: Orthohantavirus sangassouense.

FLQMENLMY had a Kd in the experiment with HLA-A*01:01 [1] (source organism: Bacillus anthracis str. A0488) of 0.0021 µM.

Regarding GVNFNLYYY, the results for the equilibrium dissociation constant (Kd) with HLA-A*01:01 [1] (source organism: Streptococcus pneumoniae D39) and with HLA-A*29:02 [2] were 0.021 µM and at most 0.0001 µM, respectively.

Turning to IQNALEKAL, the Kd in the experiment with HLA-A*02:03 (setting [21]), with HLA-A*02:11 (setting [21]), with HLA-A*02:12 (setting [21]), with HLA-A*02:16 (setting [21]), in the experiment with HLA-A*02:19 (setting [21]) and in the experiment with HLA-A*03:01 [3] (setting [21]) was at least 20 µM each time. For the same sequence, the Kd in the experiment with HLA-A*24:03 (setting [21]) was at least 20 µM; in the experiment with HLA-A*29:02 [4] (setting [21]) it was at least 20 µM; in the experiment with HLA-A*26:01 [5] (setting [21]), at least 20 µM; with HLA-A*69:01 [6] (setting [21]), at least 20 µM; with HLA-B*15:01 [7] (setting [21]), 0.197 µM; with HLA-B*15:17 (setting [21]), at least 20 µM. The equilibrium dissociation constant (Kd) with HLA-B*27:03 (setting [21]), in the experiment with HLA-B*46:01 [8] (setting [21]), with HLA-B*51:01 (setting [21]) and with HLA-B*57:01 [9] (setting [21]) was at least 20 µM each time.

Sequence VLFGLGFAI showed a 50% inhibitory concentration (IC50) in the experiment with HLA-A*03:01 [10] of 12.6 µM.

On to HQAIISDVL, for which the dissociation constant Kd with HLA-A*01:01 [11] (setting [22]), with HLA-A*03:01 [3] (setting [22]), in the experiment with HLA-A*29:02 [4] (setting [22]), with HLA-A*31:01 (setting [22]), with HLA-A*69:01 [12] (setting [22]) and with HLA-B*07:02 (setting [22]) was at least 20 µM each time. For the same sequence, the dissociation constant Kd with HLA-B*27:05 (setting [22]) is at least 20 µM; with HLA-B*39:01 [13] (setting [22]), 0.0424 µM; with HLA-B*44:02 (setting [22]), at least 20 µM; with HLA-B*46:01 [14] (setting [22]), at least 20 µM; with HLA-B*57:01 [15] (setting [22]), at least 20 µM; with HLA-B*58:01 (setting [22]) it was at least 20 µM.

For the sequence FHSRFVQAL, the Kd with HLA-A*01:01 [11] (setting [23]), with HLA-A*03:01 [3] (setting [23]), with HLA-A*11:01 (setting [23]), in the experiment with HLA-A*29:02 [4] (setting [23]), with HLA-A*31:01 (setting [23]) and in the experiment with HLA-A*69:01 [12] (setting [23]) was at least 20 µM each time. Further, the Kd with HLA-B*07:02 (setting [23]) is at least 20 µM; with HLA-B*15:01 [16] (setting [23]), at least 20 µM; in the experiment with HLA-B*27:05 (setting [23]) it was at least 20 µM; in the experiment with HLA-B*39:01 [13] (setting [23]) it was 0.0399 µM; with HLA-B*40:01 (setting [23]), at least 20 µM; with HLA-B*44:02 (setting [23]) it was at least 20 µM. The Kd with HLA-B*46:01 [14] (setting [23]), with HLA-B*57:01 [15] (setting [23]) and with HLA-B*58:01 (setting [23]) was at least 20 µM in each case.

As for QQSEARRML, the Kd with HLA-A*01:01 [11] (setting [24]) is at least 20 µM; with HLA-A*02:01 [17] it was 0.703 µM; in the experiment with HLA-A*03:01 [3] (setting [24]), at least 20 µM; in the experiment with HLA-A*11:01 (setting [24]), at least 20 µM; with HLA-A*26:01 [18], at least 20 µM; with HLA-A*31:01 (setting [24]) it was at least 20 µM. Further, the Kd in the experiment with HLA-A*69:01 [12] (setting [24]) was at least 20 µM; with HLA-B*07:02 (setting [25]) it was 0.397 µM; in the experiment with HLA-B*08:01 it was 6.41 µM; in the experiment with HLA-B*15:01 [16] (setting [25]), 0.109 µM; with HLA-B*27:05 (setting [24]), at least 20 µM; in the experiment with HLA-B*39:01 [13] (source organism: Yersinia pestis CA88-4125) it was 2.09 µM. In addition, the Kd with HLA-B*40:01 (setting [24]), with HLA-B*44:02 (setting [24]) and with HLA-B*58:01 (setting [24]) was at least 20 µM throughout.

SPGDNSAKF: the Kd with HLA-A*02:03 (setting [26]), with HLA-A*02:11 (setting [26]), with HLA-A*02:12 (setting [26]), with HLA-A*02:16 (setting [26]), in the experiment with HLA-A*02:19 (setting [26]) and in the experiment with HLA-A*03:01 [3] (setting [26]) was at least 20 µM throughout. Also, the dissociation constant (Kd) with HLA-A*24:03 (setting [26]) is at least 20 µM; with HLA-A*29:02 [4] (setting [26]), at least 20 µM; in the experiment with HLA-A*68:02, at least 20 µM; in the experiment with HLA-B*07:02 (source organism: Tanganya virus), 1.96 µM; with HLA-A*02:01 [19], at least 20 µM; with HLA-A*26:01 [5] (source organism: Kurkino virus), at least 20 µM. Also, the Kd with HLA-A*69:01 [6] (source organism: Kurkino virus), with HLA-B*15:01 [7] (source organism: Kurkino virus), with HLA-B*15:17 (source organism: Kurkino virus), with HLA-B*18:01, with HLA-B*27:03 (source organism: Kurkino virus) and in the experiment with HLA-B*39:01 [20] was at least 20 µM throughout. In addition, the Kd in the experiment with HLA-B*46:01 [8] (source organism: Kurkino virus), in the experiment with HLA-B*51:01 (source organism: Kurkino virus) and with HLA-B*57:01 [9] (source organism: Kurkino virus) was at least 20 µM each time.
